In patent US20220372138A1 (IOMX THERAPEUTICS, published 2022):
Numbering of substitutions follows the chain as printed.

T1: extracellular domain (ECD) of human IGSF11 (VSIG3), recombinant (human, UniProt Q5DX21 23-241)
T1 construct: biotinylated where captured on streptavidin; tags of the reagent not always stated; also called IGSF11 (ECD domain); ECD-IGSF11
T1 sequence: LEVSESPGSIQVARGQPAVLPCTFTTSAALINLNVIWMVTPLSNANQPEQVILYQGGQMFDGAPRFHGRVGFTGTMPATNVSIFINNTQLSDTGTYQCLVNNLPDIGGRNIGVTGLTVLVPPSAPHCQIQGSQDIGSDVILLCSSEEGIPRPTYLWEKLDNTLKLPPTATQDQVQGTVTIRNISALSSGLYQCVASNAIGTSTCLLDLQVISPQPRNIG

T2: full-length ECD of human IGSF11 fused to murine Fc (human, UniProt Q5DX21 23-241)
T2 construct: also called Fc-fusion IGSF11 ECD; not shown: murine Fc
T2 sequence: T1 sequence

T3: IgC2 domain of human IGSF11 fused to murine IgG2a Fc (human, UniProt Q5DX21 137-241)
T3 construct: not shown: murine IgG2a Fc-region
T3 sequence: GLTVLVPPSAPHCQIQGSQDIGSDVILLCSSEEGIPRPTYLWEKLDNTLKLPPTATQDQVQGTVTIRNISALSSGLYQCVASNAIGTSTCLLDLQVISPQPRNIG

T4: ECD of murine IGSF11, recombinant biotinylated (mouse, UniProt P0C673 23-240)
T4 construct: whole entry named; also called Mouse IGSF11
T4 sequence: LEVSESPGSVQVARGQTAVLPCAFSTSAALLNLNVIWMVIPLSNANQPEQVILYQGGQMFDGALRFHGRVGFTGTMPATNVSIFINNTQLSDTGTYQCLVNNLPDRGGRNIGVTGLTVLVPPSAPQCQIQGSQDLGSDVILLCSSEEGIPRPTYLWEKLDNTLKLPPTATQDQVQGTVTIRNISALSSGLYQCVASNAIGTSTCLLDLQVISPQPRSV

B1: A-017 (scFv format) (scFv, V domains shown)
VH: QVQLVQSGAEVKKPGASVKVSCKASGYTFTGYYMHWVRQAPGQGLEWMGWINPNSGNTGYAQKFQGRVTMTRNTSISTAYMELSSLRSEDTAVYYCARGGQQQLVLDDYWGQGTLVTVSS
VL: DIVLTQSPASLSASVGDRITITCQASQDIRHHLNWFQHKPGKAPKLLISDSSNLETGVPSRFSGSGSGTDFSFTISRLQPEDIATYYCQQYDSLPRTFGQGTKLEIK
notes: scFv
B2: A-005 (scFv format) (scFv, V domains shown)
VH: EVQLVESGGGLIQPGGSLRLSCAASGFTVSSNYMSWVRQAPGKGLEWVSVIYSGGSTYYADSVKGRFTISRDNSKNTLYLQMNSLRAEDTAVYYCARGNPYYYGDLQVNFDYWGQGTLVTVSS
VL: QAVVTQEPSLTVSPGETVTLTCASSTGAVTSGYYPNWFQQRPGQAPRALIYSTSNKDSWTPARFSGSLLGGKAALTLSGVQPEDEAEYYCLLYYGGAWVFGGGTKLTVL
notes: scFv
B3: A-002 (scFv format) (scFv, V domains shown)
VH: B2 VH
VL: B2 VL with E16G, L20P, A23G, Y33N, Y34L, R41K, D57H, F64I
notes: scFv
B4: A-014 (scFv format) (scFv, V domains shown)
VH: QVQLVQSGAEVKKPGASVKVSCKASGYTFNDYYIHWVRQAPGQGLEWMGWFNPSTGGANYAQKFQGRVTMTRDTSISTAYLEVSSLRSDDTAVYYCARGNSPDLDYWGQGTLVTVSS
VL: DIQMTQSPDSLTVSLGERATINCKSSQSLLHSSNNKNYLAWYQQRPGQPPKLLIYWASTRQSGVPDRFSGSGSGTDFTLTINSLQADDMAVYYCQQYYTTTPNTFGQGTKLEIK
notes: scFv
B5: A-024 (scFv format) (scFv, V domains shown)
VH: QMQLVQSGAEVKKPGSSVKVSCKASGGTFSSYAISWVRQAPGQGLEWMGWISAYNGNTNYAQKLQGRVTMTTDTSTSTAYMELRSLRSDDTAVYYCASLGSYGYTGAFDIWGQGTMATVSS
VL: QSALTQPASVSGSPGQSITISCTGTSSDVGGYNYVSWYQQHPGKAPKLMIYEVSNRPSGVSNRFSGSKSGNTASLTISGLQAEDEADYYCSSYTSSSTLVVFGGGTKLTVL
B6: A-021 (scFv format) (scFv, V domains shown)
VH: QVQLVQSGAEVKKPGASVKVSCKASGYTFTSYGISWVRQAPGQGLEWMGWISAYNGNTNYAQKLQGRVTMTTDTSTSTAYMELRSLRSDDTAVYYCARVPAWSGQFDYWGQGTLVTVSS
VL: QSALTQPASVSGSPGQSITISCTGTSSDVGGYNYVSWYQQHPGKAPKLMIYEVTNRPSGVSDRFSGSKSANTASLTISELQAEDEAVYYCNSYTSGPTYVLFGGGTQLTVL
notes: scFv
B7: A-023 (scFv format) (scFv, V domains shown)
VH: QVQLVQSGAEVKKPGSSVKVSCKASGGTFSSYAISWVRQAPGQGLEWMGGIIPIFGTANYAQKFQGRVTITADESTSTAYMELSSLRSEDTAVYYCARPKYSSGWFYYYGMDVWGQGTTVTVSS
VL: QSVLTQPPSVSAAPGQKVTISCSGSSSNIGNNYVSWYQQLPGTAPKLLIYDNNKRPSGIPDRFSGSKSGTSATLGITGLQTGDEADYYCGTWDSSLSVVFGGGTKLTVL
notes: scFv
B8: A-009 (scFv format) (scFv, V domains shown)
VH: QVQLVQSGAEVKKPGSSVKVSCKASGGTFSSYAISWVRQAPGQGLEWMGGIIPIFGTANYAQKFQGRVTITADESTSTAYMELSSLRSEDTAVYYCARGRGFGELYFDYWGQGTLVTVSS
VL: ETTLTQSPATLSVSPGERATLSCRASQGVRSNIAWYQQKPGQAPRLLIYDSSTRATGIPARFSGSGSGTEFTLTISSLQSEDFAVYSCQQYKNWPRTFGQGTKVEIK
notes: scFv
B9: C-002 (IgG1 format) (antibody, V domains shown)
VH: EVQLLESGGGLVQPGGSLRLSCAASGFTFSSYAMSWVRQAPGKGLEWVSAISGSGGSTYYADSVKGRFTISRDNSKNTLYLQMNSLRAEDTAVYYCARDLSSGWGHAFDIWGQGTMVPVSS
VL: ASVLTQPPSVSAAPGQKVTISCSGSSSNIGNNYVSWYQQLPGTAPKLLIYDNNKRPSGIPDRFSGSKSGTSATLGITGLQAEDEADYYCLSYTTSEHHLVFGGGTKLTVL
B10: C-006 (IgG1 format) (antibody, V domains shown)
VH: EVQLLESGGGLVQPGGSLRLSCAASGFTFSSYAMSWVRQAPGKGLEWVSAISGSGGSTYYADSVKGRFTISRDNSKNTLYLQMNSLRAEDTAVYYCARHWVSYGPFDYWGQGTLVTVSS
VL: DIQMTQSPSSLSASVGDRVTITCRASQSISSYLNWYQQKPGKAPKLLIYAASSLQSGVPSRFSGSGSGTDFTLTISSLQPEDFATYYCQQSHQSPPITFGQGTKVEIK
B11: C-013 (IgG1 format) (antibody, V domains shown)
VH: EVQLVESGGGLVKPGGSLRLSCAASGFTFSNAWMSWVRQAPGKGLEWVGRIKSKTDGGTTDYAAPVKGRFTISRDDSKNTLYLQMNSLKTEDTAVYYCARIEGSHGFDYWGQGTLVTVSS
VL: SYELTQPPSVSVSPGQTASITCSGDKLGDKYASWYQQKPGQSPVLVIYQDSKRPSGIPERFSGSNSGNTATLTISGTQAEDEADYYCASYLHTPKQFVFGGGTKLTVL
B12: C-023 (IgG1 format) (antibody, V domains shown)
VH: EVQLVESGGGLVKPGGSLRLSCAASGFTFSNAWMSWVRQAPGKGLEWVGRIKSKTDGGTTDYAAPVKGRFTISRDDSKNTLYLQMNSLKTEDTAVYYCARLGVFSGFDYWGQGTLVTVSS
VL: B11 VL with A88H, S89T, Y90W, L91T, T93H, P94S, K95L, Q96A, F97V
B13: C-014 (IgG1 format) (antibody, V domains shown)
VH: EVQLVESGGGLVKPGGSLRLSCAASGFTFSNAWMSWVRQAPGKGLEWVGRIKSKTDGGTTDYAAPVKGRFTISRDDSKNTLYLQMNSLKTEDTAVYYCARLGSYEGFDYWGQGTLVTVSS
VL: B11 VL with A88S, S89T, L91T, H92V, P94S, K95S, Q96V, F97V
B14: C-011 (IgG1 format) (antibody, V domains shown)
VH: QVQLVQSGAEVKKPGSSVKVSCKASGGTFSSYAISWVRQAPGQGLEWMGGIIPIFGTANYAQKFQGRVTITADESTSTAYMELSSLRSEDTAVYYCARHSTPSFLQYWGQGTLVTVSS
VL: SYELTQPPSVSVSPGQTASITCSGDKLGDKYASWYQQKPGQSPVLVIYQDSKRPSGIPERFSGSNSGNTATLTISGTQAEDEADYYCAVYPAHASARWVFGGGTKLTVL
B15: C-010 (IgG1 format) (antibody, V domains shown)
VH: B8 VH with R100Y, F102E, G103Y, E104Y, L105P, Y106A, Y109V
VL: B11 VL with L91A, P94H, K95S, Q96T, F97W
B16: C-021 (IgG1 format) (antibody, V domains shown)
VH: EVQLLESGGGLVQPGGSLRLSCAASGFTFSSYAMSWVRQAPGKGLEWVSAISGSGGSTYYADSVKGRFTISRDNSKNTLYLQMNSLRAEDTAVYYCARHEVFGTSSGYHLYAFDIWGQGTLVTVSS
VL: DIQMTQSPSSLSASVGDRVTITCRASQSISSYLNWYQQKPGKAPKLLIYAASSLQSGVPSRFSGSGSGTDFTLTISSLQPEDFATYYCQQWSGLPLTFGQGTKVEIK
B17: C-007 (Fab format) (Fab, V domains shown)
VH: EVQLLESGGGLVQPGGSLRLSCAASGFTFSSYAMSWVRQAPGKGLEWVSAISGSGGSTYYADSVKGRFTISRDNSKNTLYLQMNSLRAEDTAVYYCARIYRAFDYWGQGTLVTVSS
VL: B9 VL with L90Q, S91L, T93E, T94E, S95E, E96H, H97S, H98T, L99W
notes: Fab from E. coli lysate
B18: C-026 (Fab format) (Fab, V domains shown)
VH: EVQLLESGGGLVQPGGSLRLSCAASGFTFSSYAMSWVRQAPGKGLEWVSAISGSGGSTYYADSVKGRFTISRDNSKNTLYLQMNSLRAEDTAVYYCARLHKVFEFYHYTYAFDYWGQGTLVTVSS
VL: B9 VL with L90A, T93S, T94S, S95E, E96T, H97S, H98G, L99W
notes: Fab from E. coli lysate
B19: C-001 (Fab format) (Fab, V domains shown)
VH: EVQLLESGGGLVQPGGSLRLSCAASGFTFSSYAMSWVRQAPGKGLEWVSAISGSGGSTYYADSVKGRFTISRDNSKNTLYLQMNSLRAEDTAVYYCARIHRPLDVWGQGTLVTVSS
VL: B9 VL with L90G, Y92W, T93L, T94E, S95E, E96R, H97S, H98Q, L99Y
notes: Fab from E. coli lysate
B20: C-022 (Fab format) (Fab, V domains shown)
VH: EVQLLESGGGLVQPGGSLRLSCAASGFTFSSYAMSWVRQAPGKGLEWVSAISGSGGSTYYADSVKGRFTISRDNSKNTLYLQMNSLRAEDTAAYYCARMAAGASWGTFDYWSQGTLVTVSS
VL: B16 VL with W91R, L94S
notes: Fab from E. coli lysate
B21: C-005 (Fab format) (Fab, V domains shown)
VH: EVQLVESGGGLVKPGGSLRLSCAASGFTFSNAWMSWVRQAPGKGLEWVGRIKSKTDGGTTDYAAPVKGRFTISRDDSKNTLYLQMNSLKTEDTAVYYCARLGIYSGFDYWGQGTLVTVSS
VL: B11 VL with A88H, L91T, H92G, T93K, K95S, F97V
notes: Fab from E. coli lysate
B22: C-009 (Fab format) (Fab, V domains shown)
VH: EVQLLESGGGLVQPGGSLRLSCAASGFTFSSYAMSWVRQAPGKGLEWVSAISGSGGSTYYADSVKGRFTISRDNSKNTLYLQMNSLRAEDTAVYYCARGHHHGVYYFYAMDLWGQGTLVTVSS
VL: B11 VL with A88Q, L91S, H92G, T93S, P94S, K95T, Q96L, F97H
notes: Fab from E. coli lysate
B23: C-008 (Fab format) (Fab, V domains shown)
VH: EVQLLESGGGLVQPGGSLRLSCAASGFTFSSYAMSWVRQAPGKGLEWVSAISGSGGSTYYADSVKGRFTISRDNSKNTLYLQMNSLRAEDTAVYYCTTDNGHNRDWGQGTLVTVSS
VL: ASVLTQPPSVSAAPGQKVTISCSGSSSNIGNNYVSWYQQLPGTAPKLLIYDNNKRPSGIPDRFSGSKSGTSATLGITGLQAEDEADYYCGTWTRSSGVFGGGTKLTVL
notes: Fab from E. coli lysate

Target: T1, extracellular domain (ECD) of human …
Assay: ELISA RFU 0.5-1.0

Binder | ELISA binding signal (RFU) [rfu]
B1 | 0.5 to 1
B2 | 0.5 to 1
B3 | 0.5 to 1
B4 | 0.5 to 1
B5 | 0.5 to 1
B6 | 0.5 to 1
B7 | 0.5 to 1
B8 | 0.5 to 1

Target: T2, full-length ECD of human IGSF11 fused …
Assay: IgG ELISA;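 also: ELISA binding of IgG antibodies to plate-coated IGSF11 Fc-fusion proteins (full-length ECD, IgV or IgC2 domain), detected via HRP-labelled anti-human IgG with TMB development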

Binder | EC50 [nM]
B9 | 1 to 20
B10 | 1 to 20
B11 | 1 to 20
B12 | < 1
B13 | 1 to 20
B14 | < 1
B15 | 20 to 100

Target: T3, IgC2 domain of human IGSF11 fused to …
Assay: IgG ELISA;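 also: ELISA binding of IgG antibodies to plate-coated IGSF11 Fc-fusion proteins (full-length ECD, IgV or IgC2 domain), detected via HRP-labelled anti-human IgG with TMB development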

Binder | EC50 [nM]
B9 | < 1
B10 | < 1
B16 | < 1
B11 | < 1
B12 | < 1
B13 | < 1
B14 | < 1
B15 | 1 to 20

Target: Streptavidin (UniProt P22629 37-163, limits assumed)
Sequence (P22629 37-163 limits assumed): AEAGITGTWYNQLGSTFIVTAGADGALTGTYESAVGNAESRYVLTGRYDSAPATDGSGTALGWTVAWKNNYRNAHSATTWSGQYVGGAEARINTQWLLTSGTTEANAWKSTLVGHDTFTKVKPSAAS
Assay: Fab ELISA

Binder | A450
B17 | < 0.1
B18 | < 0.1
B19 | < 0.1
B20 | < 0.1
B21 | < 0.1
B22 | < 0.1
B23 | < 0.1

Target: T4, ECD of murine IGSF11, recombinant …
Assay: ELISA RFU 0.1-0.5

Binder | ELISA binding signal (RFU) [rfu]
B1 | 0.1 to 0.5
B2 | 0.1 to 0.5
B3 | 0.1 to 0.5
B4 | 0.1 to 0.5
B5 | 0.1 to 0.5
B6 | 0.1 to 0.5
B7 | 0.1 to 0.5
B8 | 0.1 to 0.5
